“Also recorded” adds a separate entry of the source.
Tests used:
[1] = biological target: T1, CD97 (ADGRE5) isoform 1 ectodomain, purified and biotinylated (human, UniProt P48960 21-552, limits assumed, biotinylated in vitro using the BirA enzyme); test: bead-based binding assay: biotinylated CD97 isoform 1 on streptavidin beads, Fab titrated, flow cytometry MFI; EXPERIMENT 1 and EXPERIMENT 2
T1 construct: the whole entry for isoform 1 is named here; also called CD97 isoform 1; Biotinylated CD97 isoform 1
T1 sequence: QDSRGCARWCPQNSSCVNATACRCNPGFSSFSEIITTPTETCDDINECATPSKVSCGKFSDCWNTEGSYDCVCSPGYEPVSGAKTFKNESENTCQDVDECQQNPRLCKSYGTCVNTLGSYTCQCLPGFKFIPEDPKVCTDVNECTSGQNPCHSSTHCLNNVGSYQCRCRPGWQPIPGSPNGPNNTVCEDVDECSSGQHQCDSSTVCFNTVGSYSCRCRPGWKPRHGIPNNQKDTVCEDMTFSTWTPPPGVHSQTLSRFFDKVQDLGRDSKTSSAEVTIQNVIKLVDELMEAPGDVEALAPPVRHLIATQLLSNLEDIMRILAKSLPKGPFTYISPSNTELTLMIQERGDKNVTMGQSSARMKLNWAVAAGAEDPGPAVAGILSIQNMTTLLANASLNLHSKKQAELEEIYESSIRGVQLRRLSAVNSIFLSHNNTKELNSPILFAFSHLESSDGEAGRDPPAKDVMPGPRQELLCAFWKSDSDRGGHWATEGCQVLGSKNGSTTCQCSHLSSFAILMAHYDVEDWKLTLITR
Procedure: KD values were determined from the curve fitting of a 1:1 binding model.

OCI-AML3 cells [2] = test: Cell viability assay (PrestoBlue) of ADC; format: cell-based, human; settings: 3 days incubation
Procedure: (§1) For the cell viability assay, the cells were mixed with ADC (20,000 cells/well), and incubated at 37° C. with 5% CO2 for 3 days. After incubation, cell viability was assessed by PrestoBlue assay (Thermo Fisher), following the manufacturer's protocol. The fluorescence was measured using a FlexStation 3 multi-mode microplate reader (Molecular Devices). Dose-response curves and respective ECso were generated using Prism software (GraphPad). For the cell-killing assay, a 96-well plate was coated with 0.1% poly-D-lysine. The cells were mixed with a diluted Incucyte® Annexin V Green Dye (Sartorius) and ADC (13,500 cells/well), and incubated in an Incucyte live-cell analysis system (Sartorius) at 37° C. with 5% CO2 for 4 days. The percentage of dead cells was analyzed using Incucyte Software (Sartorious).

AML cells = test: Cell viability assay (PrestoBlue), cell killing specificity; format: cell-based, human; settings: cells with different CD97 levels
Procedure: as §1

OCI-AML3 cells [3] = test: Cell-killing assay (Annexin V staining, Incucyte); format: cell-based, human
Procedure: as §1

[4] = tested on: human peripheral blood mononuclear cells (PBMCs); test: Cell-killing assay (Annexin V staining, Incucyte); format: cell-based; settings: 4 days incubation
Procedure: as §1

B1: W100eHA (Fab, V domains shown)
VH: EVQLVESGGGLVQPGGSLRLSCAASGFTISSYSIHWVRQAPGKGLEWVASISPYYGSTSYADSVKGRFTISADTSKNTAYLQMNSLRAEDTAVYYCARSWYYYEQNPYAYQKEEQALDYWGQGTLVTVSS
VL: DIQMTQSPSSLSASVGDRVTITCRASQSVSSAVAWYQQKPGKAPKLLIYSASSLYSGVPSRFSGSRSGTDFTLTISSLQPEDFATYYCQQSVYSPVTFGQGTKVEIK
notes: also called A8 W100eHA; Antibody Clone A8 W100eHA; copies: 1 + 1
- binding result [1]: no binding

B2: A8-MMAF (conjugate)
VH: EVQLVESGGGLVQPGGSLRLSCAASGFTISSYSIHWVRQAPGKGLEWVASISPYYGSTSYADSVKGRFTISADTSKNTAYLQMNSLRAEDTAVYYCARSWYYYEQNPYWYQKEEQALDYWGQGTLVTVSS
VL: DIQMTQSPSSLSASVGDRVTITCRASQSVSSAVAWYQQKPGKAPKLLIYSASSLYSGVPSRFSGSRSGTDFTLTISSLQPEDFATYYCQQSVYSPVTFGQGTKVEIKRTV
modifications: non-natural residues
- cell killing (cell viability) (OCI-AML3 cells [2]): potently killed OCI-AML3 cells in a dose-dependent manner; also recorded: potent cell-killing effect on OCI-AML3 cells
- cell killing specificity versus cell-surface CD97 level (AML cells): correlated with the cell-surface CD97 level; also recorded: inhibited cell growth only for the cells expressing a high level of CD97

B3: A8S293C-PBD (conjugate)
VH: EVQLVESGGGLVQPGGSLRLSCAASGFTISSYSIHWVRQAPGKGLEWVASISPYYGSTSYADSVKGRFTISADTSKNTAYLQMNSLRAEDTAVYYCARSWYYYEQNPYWYQKEEQALDYWGQGTLVTVSS
VL: DIQMTQSPSSLSASVGDRVTITCRASQSVSSAVAWYQQKPGKAPKLLIYSASSLYSGVPSRFSGSRSGTDFTLTISSLQPEDFATYYCQQSVYSPVTFGQGTKVEIKRTV
- cell-killing effect (cell death, Annexin V) (OCI-AML3 cells [3]; 4 days incubation): potent cell-killing effect
- specificity of cell killing (OCI-AML3 cells [3]; OCI-AML3 (hCD97 high) versus ExpiCHO (hCD97-null), 4 days): specifically killed cells expressing high levels of CD97
- killing of PBMC cells [4]: did not kill PBMC cells
